Measured values taken from publication PMC9381698, “Generation of synthetic antibody fragments with optimal complementarity determining region lengths for Notch-1 recognition” (Frontiers in Microbiology, 2022).

How the values were obtained:
[1] = target: T1, recombinant Fc-tag-fused human Notch-1 extracellular domain (Homo sapiens, UniProt P46531); assay: ELISA; phage-ELISA: Notch-1 and control proteins immobilised at 5 ug/ml on MaxiSorp plates; phage-displayed Fab at 10^12 PFU/ml in PBT for 30 min; detected with HRP-conjugated anti-M13 antibody, Abs450; settings: one partner purified
T1 construct: Notch-1, human, extracellular domain; No catalogue number and no residue limits are printed; also called N1; source: bought: R&D Systems
T1 sequence (P46531 19-1735): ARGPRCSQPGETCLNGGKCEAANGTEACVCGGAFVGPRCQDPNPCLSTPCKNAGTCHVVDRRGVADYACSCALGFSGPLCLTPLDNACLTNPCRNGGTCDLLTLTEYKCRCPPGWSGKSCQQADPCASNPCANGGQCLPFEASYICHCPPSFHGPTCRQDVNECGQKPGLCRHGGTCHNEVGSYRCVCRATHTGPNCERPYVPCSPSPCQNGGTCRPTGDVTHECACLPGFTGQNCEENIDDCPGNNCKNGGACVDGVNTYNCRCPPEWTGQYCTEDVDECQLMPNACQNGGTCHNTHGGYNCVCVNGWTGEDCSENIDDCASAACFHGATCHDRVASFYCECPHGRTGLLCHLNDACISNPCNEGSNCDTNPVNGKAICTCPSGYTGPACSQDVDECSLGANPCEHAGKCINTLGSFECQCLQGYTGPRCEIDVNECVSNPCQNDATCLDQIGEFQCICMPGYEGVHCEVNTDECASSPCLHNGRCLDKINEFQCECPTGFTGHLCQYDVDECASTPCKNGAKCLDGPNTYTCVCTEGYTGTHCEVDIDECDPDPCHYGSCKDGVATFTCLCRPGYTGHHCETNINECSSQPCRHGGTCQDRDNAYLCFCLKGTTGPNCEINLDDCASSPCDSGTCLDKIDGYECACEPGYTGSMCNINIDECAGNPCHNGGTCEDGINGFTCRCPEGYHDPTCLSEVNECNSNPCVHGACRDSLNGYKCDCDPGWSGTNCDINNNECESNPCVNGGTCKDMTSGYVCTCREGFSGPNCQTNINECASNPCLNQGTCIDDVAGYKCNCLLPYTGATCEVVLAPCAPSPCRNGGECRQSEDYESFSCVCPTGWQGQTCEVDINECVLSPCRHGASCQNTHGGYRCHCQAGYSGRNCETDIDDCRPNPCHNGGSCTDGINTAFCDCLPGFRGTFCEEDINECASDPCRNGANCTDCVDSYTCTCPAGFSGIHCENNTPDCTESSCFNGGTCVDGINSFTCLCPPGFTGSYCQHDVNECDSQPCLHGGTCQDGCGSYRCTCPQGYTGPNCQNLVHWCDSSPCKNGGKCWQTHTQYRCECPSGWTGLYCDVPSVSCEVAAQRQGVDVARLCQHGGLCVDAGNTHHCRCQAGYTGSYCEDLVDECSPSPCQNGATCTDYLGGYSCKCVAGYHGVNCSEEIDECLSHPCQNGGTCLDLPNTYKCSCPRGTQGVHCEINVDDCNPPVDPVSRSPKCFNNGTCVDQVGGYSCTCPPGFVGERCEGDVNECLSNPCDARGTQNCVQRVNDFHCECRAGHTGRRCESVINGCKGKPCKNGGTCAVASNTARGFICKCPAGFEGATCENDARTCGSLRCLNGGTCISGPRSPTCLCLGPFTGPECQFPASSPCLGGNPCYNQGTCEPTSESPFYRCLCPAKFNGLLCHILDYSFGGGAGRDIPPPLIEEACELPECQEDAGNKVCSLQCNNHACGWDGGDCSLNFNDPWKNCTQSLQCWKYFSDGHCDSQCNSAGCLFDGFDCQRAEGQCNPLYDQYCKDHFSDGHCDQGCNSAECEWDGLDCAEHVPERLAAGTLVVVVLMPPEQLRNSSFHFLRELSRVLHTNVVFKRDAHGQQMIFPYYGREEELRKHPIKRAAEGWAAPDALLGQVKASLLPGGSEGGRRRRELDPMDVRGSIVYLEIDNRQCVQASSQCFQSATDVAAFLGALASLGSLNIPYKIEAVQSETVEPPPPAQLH

[2] = target: T1, recombinant Fc-tag-fused human Notch-1 …; assay: BLI; Octet RED384; Fabs immobilised on amine-reactive generation-2 or anti-Fab CH1 biosensors, target proteins in solution at three or more concentrations; 25 C, PBS; global 1:1 fit; apparent KD (Fc-Notch proteins may dimerize, avidity); settings: both partners purified
[3] = target: T1, recombinant Fc-tag-fused human Notch-1 …; assay: ELISA; multi-point Fab-ELISA: target immobilised at 5 ug/ml on MaxiSorp plates; purified Fab 0.01 nM-1 uM in PT for 30 min; detected with HRP-conjugated anti-HIS antibody; EC50 from a one-site specific-binding fit; settings: both partners purified
[4] = target: T2, Jagged-2 receptor ectodomain (Homo sapiens (assumed), UniProt Q9Y219); assay: ELISA; single-point Fab-ELISA for specificity: proteins immobilised at 5 ug/ml on MaxiSorp plates; purified Fab at 1 uM; detected with HRP-conjugated anti-HIS antibody, Abs450; settings: both partners purified
T2 construct: Jagged-2 ectodomain; it may be an Fc fusion like the Notch proteins; also called J2
T2 sequence (Q9Y219 27-1080): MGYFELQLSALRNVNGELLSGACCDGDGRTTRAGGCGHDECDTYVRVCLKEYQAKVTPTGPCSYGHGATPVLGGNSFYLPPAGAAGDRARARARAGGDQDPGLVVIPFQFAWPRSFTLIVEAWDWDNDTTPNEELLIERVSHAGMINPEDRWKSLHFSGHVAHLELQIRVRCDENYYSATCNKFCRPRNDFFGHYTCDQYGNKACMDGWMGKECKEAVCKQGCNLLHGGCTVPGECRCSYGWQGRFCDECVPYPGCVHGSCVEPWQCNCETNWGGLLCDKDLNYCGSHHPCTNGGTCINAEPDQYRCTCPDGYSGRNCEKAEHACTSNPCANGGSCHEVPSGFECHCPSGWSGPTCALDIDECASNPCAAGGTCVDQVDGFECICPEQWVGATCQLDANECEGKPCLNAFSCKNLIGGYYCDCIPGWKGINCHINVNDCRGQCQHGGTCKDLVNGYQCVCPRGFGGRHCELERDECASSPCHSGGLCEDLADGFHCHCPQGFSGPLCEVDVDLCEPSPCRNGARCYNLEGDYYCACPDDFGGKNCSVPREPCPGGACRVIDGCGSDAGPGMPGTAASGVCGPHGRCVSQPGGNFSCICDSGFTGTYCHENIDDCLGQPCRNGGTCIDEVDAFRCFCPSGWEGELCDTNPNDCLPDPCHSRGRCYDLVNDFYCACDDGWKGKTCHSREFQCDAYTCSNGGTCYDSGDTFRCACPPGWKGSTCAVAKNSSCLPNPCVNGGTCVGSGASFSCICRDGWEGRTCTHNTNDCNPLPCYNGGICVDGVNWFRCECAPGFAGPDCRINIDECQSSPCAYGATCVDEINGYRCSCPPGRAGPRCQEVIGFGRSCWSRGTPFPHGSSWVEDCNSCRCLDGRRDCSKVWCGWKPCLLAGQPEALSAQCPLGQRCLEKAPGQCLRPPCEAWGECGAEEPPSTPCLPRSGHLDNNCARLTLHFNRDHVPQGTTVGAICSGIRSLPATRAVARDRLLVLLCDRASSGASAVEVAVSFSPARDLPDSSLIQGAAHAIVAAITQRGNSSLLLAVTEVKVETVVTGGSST

[5] = target: T3, recombinant Fc-tag-fused human Notch-1 extracellular domain (Homo sapiens, UniProt P46531); assay: BLI; Fabs immobilised on amine-reactive generation-2 or anti-Fab CH1 biosensors, target proteins in solution at at least three concentrations; 25°C, PBS; global fit to a 1:1 binding model; apparent constants (Fc fusions may dimerize); settings: both partners purified
T3 construct: Notch-1, human, extracellular domain; the R&D Systems product may hold only part of the ectodomain (surmise); also called N1; Fc-Notch; source: bought: R&D Systems
T3 sequence (P46531 19-1735): as the sequence (P46531 19-1735) above

Binder	Kd [2]	EC50 [3]	koff [5]	kon [5]	other results
phage-displayed Fab N1/F/R2 (Fab, V domains shown, as the light chain of m15; as the heavy chain of m15; Reconstructed by Kunkel mutagenesis in the MBP phagemid) VH: EVQLVESGGGLVQPGGSLRLSCAASGFNFSSSSIHWVRQAPGKGLEWVASIYSYYGYTYYADSVKGRFTISADTSKNTAYLQMNSLRAEDTAVYYCARSWWGGSWYAALDYWGQGTLVTVSS VL: DIQMTQSPSSLSASVGDRVTITCRASQSVSSAVAWYQQKPGKAPKLLIYSASSLYSGVPSRFSGSRSGTDFTLTISSLQPEDFATYYCQQWWSLITFGQGTKVEIK	–	–	–	–	fold weaker phage-ELISA signal than the high-frequency Fabs [1]: ~4 fold
Fab N1/F/1 (purified soluble Fab) (Fab, V domains shown, light chain on the modified trastuzumab framework of Library-F (Persson et al., 2013); CDRs L1 and L2 fixed; Fab heavy chain on the modified trastuzumab framework of Library-F; short CDRH3; The Fab is detected by an anti-HIS antibody; source: E. coli BL21, purified (Protein-L resin)) VH: EVQLVESGGGLVQPGGSLRLSCAASGFNISSYSMHWVRQAPGKGLEWVAYISSSYGSTYYADSVKGRFTISADTSKNTAYLQMNSLRAEDTAVYYCARSWALDYWGQGTLVTVSS VL: DIQMTQSPSSLSASVGDRVTITCRASQSVSSAVAWYQQKPGKAPKLLIYSASSLYSGVPSRFSGSRSGTDFTLTISSLQPEDFATYYCQQYWGPITFGQGTKVEIK	0.45 ± 0.05 nM	~4 nM	–	–	–
Fab N1/F/R3 (purified soluble Fab) (Fab, V domains shown, light chain on the modified trastuzumab framework of Library-F (Persson et al., 2013); CDRs L1 and L2 fixed; clone reconstructed from NGS information; Fab heavy chain on the modified trastuzumab framework of Library-F; medium CDRH3 length; The Fab is detected by an anti-HIS antibody; source: E. coli BL21, purified (Protein-L resin)) VH: EVQLVESGGGLVQPGGSLRLSCAASGFNIYSSYMHWVRQAPGKGLEWVASIYPYYGYTSYADSVKGRFTISADTSKNTAYLQMNSLRAEDTAVYYCARYFSYGPFYYGSGLDYWGQGTLVTVSS VL: DIQMTQSPSSLSASVGDRVTITCRASQSVSSAVAWYQQKPGKAPKLLIYSASSLYSGVPSRFSGSRSGTDFTLTISSLQPEDFATYYCQQGFSLITFGQGTKVEIK	6.6 nM	37 nM	–	–	binding result [4]: binds
phage-displayed Fab N1/F/R3 (Fab, V domains shown, as the light chain of m16; as the heavy chain of m16; Reconstructed by Kunkel mutagenesis in the MBP phagemid) VH: EVQLVESGGGLVQPGGSLRLSCAASGFNIYSSYMHWVRQAPGKGLEWVASIYPYYGYTSYADSVKGRFTISADTSKNTAYLQMNSLRAEDTAVYYCARYFSYGPFYYGSGLDYWGQGTLVTVSS VL: DIQMTQSPSSLSASVGDRVTITCRASQSVSSAVAWYQQKPGKAPKLLIYSASSLYSGVPSRFSGSRSGTDFTLTISSLQPEDFATYYCQQGFSLITFGQGTKVEIK	–	–	–	–	fold weaker phage-ELISA signal than the high-frequency Fabs [1]: ~10 fold
Fab N1/F/R3 (Fab, V domains shown, Library-F rare Fab reconstructed from NGS information, modified trastuzumab framework; Library-F rare Fab reconstructed from NGS information, modified trastuzumab framework, CDRs L1 and L2 fixed; The Fab has a His tag (detected with anti-HIS antibody and biosensors); Library-F framework: Persson et al., 2013; source: E. coli BL21, purified (Protein-L resin)) VH: EVQLVESGGGLVQPGGSLRLSCAASGFNIYSSYMHWVRQAPGKGLEWVASIYPYYGYTSYADSVKGRFTISADTSKNTAYLQMNSLRAEDTAVYYCARYFSYGPFYYGSGLDYWGQGTLVTVSS VL: DIQMTQSPSSLSASVGDRVTITCRASQSVSSAVAWYQQKPGKAPKLLIYSASSLYSGVPSRFSGSRSGTDFTLTISSLQPEDFATYYCQQGFSLITFGQGTKVEIK	–	–	0.000484 s⁻¹	85300 M⁻¹ s⁻¹	–
Fab N1/F/1 (Fab, V domains shown, Library-F Fab on a modified trastuzumab framework; Library-F Fab on a modified trastuzumab framework, CDRs L1 and L2 fixed; The Fab has a His tag (detected with anti-HIS antibody and biosensors); Library-F framework: Persson et al., 2013; source: E. coli BL21, purified (Protein-L resin)) VH: EVQLVESGGGLVQPGGSLRLSCAASGFNISSYSMHWVRQAPGKGLEWVAYISSSYGSTYYADSVKGRFTISADTSKNTAYLQMNSLRAEDTAVYYCARSWALDYWGQGTLVTVSS VL: DIQMTQSPSSLSASVGDRVTITCRASQSVSSAVAWYQQKPGKAPKLLIYSASSLYSGVPSRFSGSRSGTDFTLTISSLQPEDFATYYCQQYWGPITFGQGTKVEIK	–	–	0.000118 s⁻¹	296000 M⁻¹ s⁻¹	–
Fab N1/F/R1 (purified soluble Fab) (Fab, V domains shown, light chain on the modified trastuzumab framework of Library-F (Persson et al., 2013); CDRs L1 and L2 fixed; clone reconstructed from NGS information; Fab heavy chain on the modified trastuzumab framework of Library-F; medium CDRH3 length; The Fab is detected by an anti-HIS antibody; source: E. coli BL21, purified (Protein-L resin)) VH: EVQLVESGGGLVQPGGSLRLSCAASGFNIYSSYIHWVRQAPGKGLEWVASIYPYYGSTYYADSVKGRFTISADTSKNTAYLQMNSLRAEDTAVYYCARYAHFSVYGAMDYWGQGTLVTVSS VL: DIQMTQSPSSLSASVGDRVTITCRASQSVSSAVAWYQQKPGKAPKLLIYSASSLYSGVPSRFSGSRSGTDFTLTISSLQPEDFATYYCQQWYGGYALFTFGQGTKVEIK	1.98 nM	~4 nM	–	–	binding result [4]: binds
Fab N1/F/R1 (Fab, V domains shown, Library-F rare Fab reconstructed from NGS information, modified trastuzumab framework; Library-F rare Fab reconstructed from NGS information, modified trastuzumab framework, CDRs L1 and L2 fixed; The Fab has a His tag (detected with anti-HIS antibody and biosensors); Library-F framework: Persson et al., 2013; source: E. coli BL21, purified (Protein-L resin)) VH: EVQLVESGGGLVQPGGSLRLSCAASGFNIYSSYIHWVRQAPGKGLEWVASIYPYYGSTYYADSVKGRFTISADTSKNTAYLQMNSLRAEDTAVYYCARYAHFSVYGAMDYWGQGTLVTVSS VL: DIQMTQSPSSLSASVGDRVTITCRASQSVSSAVAWYQQKPGKAPKLLIYSASSLYSGVPSRFSGSRSGTDFTLTISSLQPEDFATYYCQQWYGGYALFTFGQGTKVEIK	–	–	0.000154 s⁻¹	76400 M⁻¹ s⁻¹	–
